B1: BNp-Red-1.2 (designed binder)
chain: MKLATIDQWLLKNAKEDAIAELKKAGITADAYFNWINNAWDVDYVNYRKNKILKAHAGSSGLEHHHHHH
B2: BNp-Red-1.0 (binder of NpF2164g6-Red state) (designed binder)
chain: MKLATIDQWLLKNAKEDAIAELKKAGITSDAYFNLINDAFDVDYVNYRKNKILKAHAGSSGLEHHHHHH

Experiments:
[1] = biological target: T1, NpF2164g6 (1038–1206), holo-protein, not biotinylated (phycocyanobilin (PCB) chromophore bound); assay: Pr-state (dark), from thermal reversion rate
T1 chain: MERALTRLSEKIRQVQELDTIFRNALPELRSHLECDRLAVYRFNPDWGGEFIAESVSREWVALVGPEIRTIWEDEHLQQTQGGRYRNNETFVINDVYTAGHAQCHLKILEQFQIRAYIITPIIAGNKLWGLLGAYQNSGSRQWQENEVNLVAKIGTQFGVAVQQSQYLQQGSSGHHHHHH

[2] = biological target: Biotinylated NpF2164g6 (1038–1206), Avi-tagged holo-protein; assay: ELISA; purified biotinylated NpF2164g6 immobilised, purified FLAG-tagged binders, red-light conditions (Pg state)
[3] = biological target: NpF2164g6 (1038–1206), holo-protein, not biotinylated
[4] = biological target: NpF2164g6 (1038–1206), holo-protein, not biotinylated; assay: thermal reversion kinetics (UV-vis); observed thermal reversion rate of NpF2164g6 against binder concentration, gives Kd,L of the light (Pg) state; 25 °C, PBS pH 7.2
[5] = biological target: Biotinylated NpF2164g6 (1038–1206), Avi-tagged holo-protein; assay: ELISA; purified biotinylated NpF2164g6 immobilised, purified FLAG-tagged binders, dark-adapted (Pr state)
[6] = biological target: NpF2164g6 (1038–1206), holo-protein, not biotinylated; assay: other fluorescence titration; Pr (dark) state fluorescence of NpF2164g6 against binder concentration, 1:1 binding model, gives Kd,D; 25 °C, PBS pH 7.2
[7] = biological target: T1, NpF2164g6 (1038–1206), holo-protein, …; assay: dark state (Pr), thermal reversion
[8] = biological target: T2, NpF2164g6 (1052–1206), N-terminal truncation (phycocyanobilin (PCB) chromophore linked to Cys90 (construct numbering); 15N label for NMR); assay: light state (Pg), thermal reversion
T2 chain: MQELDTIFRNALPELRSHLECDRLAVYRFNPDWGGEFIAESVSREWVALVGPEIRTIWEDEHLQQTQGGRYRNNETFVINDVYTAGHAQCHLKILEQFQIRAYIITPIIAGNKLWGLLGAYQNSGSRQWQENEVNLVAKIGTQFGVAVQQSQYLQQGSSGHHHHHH

[9] = biological target: T2, NpF2164g6 (1052–1206), N-terminal …; assay: dark state (Pr), thermal reversion

Chain of Biotinylated NpF2164g6 (1038–1206), Avi-tagged holo-protein (main, as listed by the source): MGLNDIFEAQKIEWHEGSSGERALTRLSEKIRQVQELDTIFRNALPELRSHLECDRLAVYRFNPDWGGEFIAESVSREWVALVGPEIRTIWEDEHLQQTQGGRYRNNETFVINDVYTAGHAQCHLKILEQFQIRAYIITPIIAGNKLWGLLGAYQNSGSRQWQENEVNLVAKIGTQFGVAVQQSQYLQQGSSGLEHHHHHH

| Binder | Kd [1] [µM] | Kd [2] [µM] | SEAP reporter activity in stably transfected CHO-K1 cells (NpF2164g6-FUS-VP16-NLS and E-BNp-Red-1.2-NLS), dark against 660 nm illumination for 24 h, bulk cell culture [3] [fold] | SEAP reporter activity in stably transfected CHO-K1 cells (NpF2164g6-FUS-VP16-NLS and E-BNp-Red-1.2-NLS), dark against 660 nm illumination for 24 h, individual clones [3] [fold] | Kd [4] [µM] | Kd [5] [nM] | Kd [6] [µM] | Kd [7] [µM] | Kd [8] [µM] | Kd [9] [µM] |
| --- | --- | --- | --- | --- | --- | --- | --- | --- | --- | --- |
| B1 | 3.7 | > 100 | 24 | > 30 | > 30 | 600 | 3 | 3.7 | – | – |
| B2 | 7.9 | – | – | – | > 200 | – | 7 | 7.9 | > 180 | 7 |
